Experimental data from PMC3537517, “In vitro substrate phosphorylation by Ca^2+/calmodulin-dependent protein kinase kinase using guanosine-5^′-triphosphate as a phosphate donor” (BMC Biochemistry, 2012).

Tests used:
[1] = tested on: Nc1nc2c(ncn2[C@@H]2O[C@H](COP(=O)(O)OP(=O)(O)OP(=O)(O)O)[C@@H](O)[C@H]2O)c(=O)[nH]1; experiment: purified protein; conditions: Mg2+, Ca2+ phosphate donor; STO-609 competes with GTP; 30.0 °C
[2] = tested on: Nc1ncnc2c1ncn2[C@@H]1O[C@H](COP(=O)(O)OP(=O)(O)OP(=O)(O)O)[C@@H](O)[C@H]1O; experiment: purified protein; conditions: Mg2+, Ca2+ phosphate donor; 30.0 °C
CaMKKβ = biological target: T1, CaMKKβ (Rattus norvegicus, UniProt O88831); experiment: […]-GTP kinase assay with GST-CaMKIα ([…]-293, K49E); Lineweaver-Burk; assay type: biochemical
T1 construct: gene Camkk2; recombinant CaMKKβ purified from E. coli; with calmodulin (Ca2+/CaM)
T1 sequence (O88831 2-587): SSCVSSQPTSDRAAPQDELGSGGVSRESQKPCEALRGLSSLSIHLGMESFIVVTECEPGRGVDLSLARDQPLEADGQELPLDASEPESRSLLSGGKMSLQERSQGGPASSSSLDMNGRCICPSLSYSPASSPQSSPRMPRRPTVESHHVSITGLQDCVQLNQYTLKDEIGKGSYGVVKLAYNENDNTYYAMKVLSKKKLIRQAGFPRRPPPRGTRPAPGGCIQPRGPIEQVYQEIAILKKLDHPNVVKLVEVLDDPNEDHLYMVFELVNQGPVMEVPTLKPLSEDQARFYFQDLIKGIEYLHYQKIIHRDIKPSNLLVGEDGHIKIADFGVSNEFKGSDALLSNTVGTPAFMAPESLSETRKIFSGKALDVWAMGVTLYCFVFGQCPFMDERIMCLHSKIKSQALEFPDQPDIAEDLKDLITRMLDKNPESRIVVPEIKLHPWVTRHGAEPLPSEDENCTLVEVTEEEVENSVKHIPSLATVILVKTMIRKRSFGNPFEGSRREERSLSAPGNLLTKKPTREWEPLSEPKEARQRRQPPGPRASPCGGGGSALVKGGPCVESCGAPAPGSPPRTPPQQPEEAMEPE

CaMKKα = biological target: T2, CaMKKα (Rattus norvegicus, UniProt P97756); experiment: as above; assay type: biochemical
T2 construct: gene Camkk1; recombinant CaMKKα purified from E. coli; with calmodulin (Ca2+/CaM)
T2 sequence (P97756 whole entry): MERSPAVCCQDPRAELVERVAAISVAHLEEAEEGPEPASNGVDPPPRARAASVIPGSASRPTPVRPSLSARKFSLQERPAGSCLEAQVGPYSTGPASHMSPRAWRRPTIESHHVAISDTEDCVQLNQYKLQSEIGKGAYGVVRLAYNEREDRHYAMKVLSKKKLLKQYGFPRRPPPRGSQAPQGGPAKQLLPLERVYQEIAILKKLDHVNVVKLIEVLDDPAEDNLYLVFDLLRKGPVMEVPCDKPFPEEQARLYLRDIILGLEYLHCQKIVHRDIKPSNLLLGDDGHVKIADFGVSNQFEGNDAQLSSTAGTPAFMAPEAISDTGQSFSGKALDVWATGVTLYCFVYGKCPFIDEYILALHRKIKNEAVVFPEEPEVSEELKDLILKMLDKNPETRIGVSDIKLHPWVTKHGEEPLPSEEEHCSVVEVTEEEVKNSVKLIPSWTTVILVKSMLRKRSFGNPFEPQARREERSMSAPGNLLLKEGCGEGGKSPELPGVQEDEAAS

IC50 (CaMKKβ)	IC50 (CaMKKα)	Compound	Km [1]	Vmax [1]	Km [2]	Vmax [2]
		CaMKKβ (Rattus norvegicus)	507 µM	0.077 µmol/min/mg	15 µM	0.286 µmol/min/mg
38.2 nM	255 nM	O=C(O)c1ccc2c3c1cccc3c(=O)n1c3ccccc3nc21 [STO-609, 7H-benzimidazo[2,1-a]benz[de]isoquinoline-7-one-3-carboxylic acid]				
		CaMKKα (Rattus norvegicus)	444 µM	0.312 µmol/min/mg	15 µM	0.625 µmol/min/mg
